Experimental data published in IntAct's records for PubMed 35512704.

B1: Speckle-type POZ protein (Homo sapiens), O43791 (parent)
chain: MSRVPSPPPPAEMSSGPVAESWCYTQIKVVKFSYMWTINNFSFCREEMGEVIKSSTFSSGANDKLKWCLRVNPKGLDEESKDYLSLYLLLVSCPKSEVRAKFKFSILNAKGEETKAMESQRAYRFVQGKDWGFKKFIRRDFLLDEANGLLPDDKLTLFCEVSVVQDSVNISGQNTMNMVKVPECRLADELGGLWENSRFTDCCLCVAGQEFQAHKAILAARSPVFSAMFEHEMEESKKNRVEINDVEPEVFKEMMCFIYTGKAPNLDKMADDLLAAADKYALERLKVMCEDALCSNLSVENAAEILILADLHSADQLKTQAVDFINYHASDVLETSGWKSMVVSHPHLVAEAYRSLASAQCPFLGPPRKRLKQS
partner: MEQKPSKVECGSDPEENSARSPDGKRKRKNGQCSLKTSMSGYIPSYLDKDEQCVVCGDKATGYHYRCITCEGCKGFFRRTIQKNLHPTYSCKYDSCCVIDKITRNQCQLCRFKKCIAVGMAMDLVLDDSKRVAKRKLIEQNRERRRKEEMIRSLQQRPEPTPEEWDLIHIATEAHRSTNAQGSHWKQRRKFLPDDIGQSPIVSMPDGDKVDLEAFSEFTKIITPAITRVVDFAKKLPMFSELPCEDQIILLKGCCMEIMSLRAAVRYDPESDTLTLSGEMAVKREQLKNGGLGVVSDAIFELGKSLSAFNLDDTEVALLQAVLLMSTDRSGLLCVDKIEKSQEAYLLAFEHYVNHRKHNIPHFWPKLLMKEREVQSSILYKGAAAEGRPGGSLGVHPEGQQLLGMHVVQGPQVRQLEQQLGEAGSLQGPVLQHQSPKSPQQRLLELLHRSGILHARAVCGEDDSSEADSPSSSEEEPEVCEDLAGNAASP
B2: Speckle-type POZ protein (Homo sapiens), O43791 (parent)
chain: B1 chain
partner: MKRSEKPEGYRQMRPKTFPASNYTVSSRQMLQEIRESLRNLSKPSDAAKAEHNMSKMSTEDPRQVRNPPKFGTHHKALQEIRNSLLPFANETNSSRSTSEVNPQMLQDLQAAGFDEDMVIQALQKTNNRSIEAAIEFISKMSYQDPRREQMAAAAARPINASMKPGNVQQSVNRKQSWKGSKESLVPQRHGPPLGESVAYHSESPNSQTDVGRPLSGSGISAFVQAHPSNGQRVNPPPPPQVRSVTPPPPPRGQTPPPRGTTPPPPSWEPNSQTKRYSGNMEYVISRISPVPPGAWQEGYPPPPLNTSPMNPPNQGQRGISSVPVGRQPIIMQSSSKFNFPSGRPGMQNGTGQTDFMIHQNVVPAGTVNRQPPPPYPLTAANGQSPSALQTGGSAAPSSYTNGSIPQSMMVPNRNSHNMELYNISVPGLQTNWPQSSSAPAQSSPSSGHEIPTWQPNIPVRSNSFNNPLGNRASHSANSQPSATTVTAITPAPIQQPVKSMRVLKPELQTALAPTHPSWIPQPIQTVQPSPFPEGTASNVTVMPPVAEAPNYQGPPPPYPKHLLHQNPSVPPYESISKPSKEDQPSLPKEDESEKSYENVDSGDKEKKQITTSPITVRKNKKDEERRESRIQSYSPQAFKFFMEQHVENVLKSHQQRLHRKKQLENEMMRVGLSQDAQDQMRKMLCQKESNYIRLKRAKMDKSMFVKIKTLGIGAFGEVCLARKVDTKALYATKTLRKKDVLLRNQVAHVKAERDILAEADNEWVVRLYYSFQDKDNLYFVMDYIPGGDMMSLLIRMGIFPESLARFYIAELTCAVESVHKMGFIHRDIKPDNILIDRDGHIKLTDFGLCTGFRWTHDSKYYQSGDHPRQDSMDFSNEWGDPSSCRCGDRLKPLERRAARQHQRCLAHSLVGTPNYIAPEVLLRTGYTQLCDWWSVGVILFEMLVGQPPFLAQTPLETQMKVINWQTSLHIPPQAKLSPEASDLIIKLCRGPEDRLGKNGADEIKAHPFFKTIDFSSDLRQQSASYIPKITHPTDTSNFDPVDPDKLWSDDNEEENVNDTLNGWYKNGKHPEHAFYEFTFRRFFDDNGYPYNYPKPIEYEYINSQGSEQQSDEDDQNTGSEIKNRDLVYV
B3: Speckle-type POZ protein (Homo sapiens), O43791 (parent)
chain: B1 chain
partner: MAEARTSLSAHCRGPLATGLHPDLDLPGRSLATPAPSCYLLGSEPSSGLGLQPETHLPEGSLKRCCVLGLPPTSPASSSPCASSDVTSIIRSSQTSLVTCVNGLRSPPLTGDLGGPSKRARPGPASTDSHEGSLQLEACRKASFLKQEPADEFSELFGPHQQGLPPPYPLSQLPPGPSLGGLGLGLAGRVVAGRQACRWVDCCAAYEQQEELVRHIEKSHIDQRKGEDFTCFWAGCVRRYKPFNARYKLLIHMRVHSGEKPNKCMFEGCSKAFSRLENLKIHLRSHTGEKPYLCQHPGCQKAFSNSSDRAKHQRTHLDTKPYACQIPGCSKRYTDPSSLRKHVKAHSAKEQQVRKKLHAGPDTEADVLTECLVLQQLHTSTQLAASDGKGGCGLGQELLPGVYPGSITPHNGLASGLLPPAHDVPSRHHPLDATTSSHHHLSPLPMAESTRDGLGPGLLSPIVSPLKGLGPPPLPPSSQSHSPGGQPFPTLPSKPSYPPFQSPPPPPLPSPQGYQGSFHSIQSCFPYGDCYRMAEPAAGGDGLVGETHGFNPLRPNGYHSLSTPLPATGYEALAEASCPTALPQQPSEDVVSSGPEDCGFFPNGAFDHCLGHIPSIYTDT
B4: Speckle-type POZ protein (Homo sapiens), O43791 (parent)
chain: B1 chain
partner: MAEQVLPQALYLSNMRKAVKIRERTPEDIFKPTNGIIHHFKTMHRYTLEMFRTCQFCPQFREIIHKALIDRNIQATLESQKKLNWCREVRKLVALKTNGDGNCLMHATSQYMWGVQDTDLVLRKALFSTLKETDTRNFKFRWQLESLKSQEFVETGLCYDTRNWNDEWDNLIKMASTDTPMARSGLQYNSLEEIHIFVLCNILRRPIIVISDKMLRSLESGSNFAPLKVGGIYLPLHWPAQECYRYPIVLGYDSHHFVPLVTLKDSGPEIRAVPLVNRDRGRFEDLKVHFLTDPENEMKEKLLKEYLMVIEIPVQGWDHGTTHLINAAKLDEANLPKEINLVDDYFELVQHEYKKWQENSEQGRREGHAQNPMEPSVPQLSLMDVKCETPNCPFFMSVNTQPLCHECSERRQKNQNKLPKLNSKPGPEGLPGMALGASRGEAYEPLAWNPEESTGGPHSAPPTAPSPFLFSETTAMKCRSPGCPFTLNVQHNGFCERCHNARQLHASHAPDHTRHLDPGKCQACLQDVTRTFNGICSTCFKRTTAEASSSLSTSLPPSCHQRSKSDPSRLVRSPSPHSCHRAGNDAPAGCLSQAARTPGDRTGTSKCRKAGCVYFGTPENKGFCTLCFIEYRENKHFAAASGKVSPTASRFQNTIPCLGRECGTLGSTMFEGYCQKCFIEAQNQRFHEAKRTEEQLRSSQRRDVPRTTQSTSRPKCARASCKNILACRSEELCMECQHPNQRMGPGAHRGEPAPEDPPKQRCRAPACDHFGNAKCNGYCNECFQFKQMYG

Variants of: B1
Settings: with tha_human THRA

Variant | effect of a mutation on the interaction
F133V | with no effect

Variants of: B1
Settings: with tha_human THRA
Remark: another data set of the same source

Variant | effect of a mutation on the interaction
F133L | with no effect

Variants of: B1
Settings: with tha_human THRA
Remark: another data set of the same source

Variant | effect of a mutation on the interaction
Y87C | with no effect

Variants of: B1
Settings: with tha_human THRA
Remark: another data set of the same source

Variant | effect of a mutation on the interaction
F102C | with no effect

Variants of: B2
Settings: with lats1_human LATS1, O95835

Variant | effect of a mutation on the interaction
F133V | with no effect

Variants of: B2
Settings: with lats1_human LATS1, O95835
Remark: another data set of the same source

Variant | effect of a mutation on the interaction
F133L | with no effect

Variants of: B2
Settings: with lats1_human LATS1, O95835
Remark: another data set of the same source

Variant | effect of a mutation on the interaction
Y87C | with no effect

Variants of: B3
Settings: with glis1_human GLIS1, Q8NBF1

Variant | effect of a mutation on the interaction
F133L | with no effect

Variants of: B3
Settings: with glis1_human GLIS1, Q8NBF1
Remark: another data set of the same source

Variant | effect of a mutation on the interaction
Y87C | with no effect

Variants of: B4
Settings: with tnap3_human TNFAIP3, P21580

Variant | effect of a mutation on the interaction
Y87C | with no effect
